Here are results for five molecules from publication PMC6005420, “A low-complexity region in the YTH domain protein Mmi1 enhances RNA binding”.

For data set [1], the system named is Mmi1 YTH-ΔC (Schizosaccharomyces pombe). In words: SwitchSENSE. As to conditions: 40 mM NaCl; RNA-DNA chimera: 15-mer DSRshort followed by 42 deoxyribonucleotides; FP: 10 mM TAPS pH 8.2, 2 mM PIPES, 50 or 150 mM NaCl, 0.5 mM MgAc, 0.1 mM TCEP, 0.01% Brij-35, room temperature, 0.1 nM RNA; EMSA: 20 mM HEPES pH 7.5, 100 mM …. In general terms: A gel shift assay detects complexes by their altered migration in electrophoresis.

For data set [2], the system named is Mmi1 YTH-ΔN (Schizosaccharomyces pombe). In words: SwitchSENSE. As to conditions: 40 mM NaCl; RNA-DNA chimera: 15-mer DSRshort followed by 42 deoxyribonucleotides; FP: 10 mM TAPS pH 8.2, 2 mM PIPES, 50 or 150 mM NaCl, 0.5 mM MgAc, 0.1 mM TCEP, 0.01% Brij-35, room temperature, 0.1 nM RNA; EMSA: 20 mM HEPES pH 7.5, 100 mM ….
In data set [3] the target is T1, Mmi1 USR-YTH (Schizosaccharomyces pombe, UniProt O74958 282-488).
T1 sequence: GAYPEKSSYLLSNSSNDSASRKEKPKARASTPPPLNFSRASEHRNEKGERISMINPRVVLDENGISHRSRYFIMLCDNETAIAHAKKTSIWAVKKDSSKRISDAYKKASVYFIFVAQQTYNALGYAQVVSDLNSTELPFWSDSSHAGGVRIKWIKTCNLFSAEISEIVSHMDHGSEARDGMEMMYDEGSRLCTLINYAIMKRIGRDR
Put plainly: SwitchSENSE. Particulars: 40 mM NaCl; RNA-DNA chimera: 15-mer DSRshort followed by 42 deoxyribonucleotides; FP: 10 mM TAPS pH 8.2, 2 mM PIPES, 50 or 150 mM NaCl, 0.5 mM MgAc, 0.1 mM TCEP, 0.01% Brij-35, room temperature, 0.1 nM RNA; EMSA: 20 mM HEPES pH 7.5, 100 mM ….

Data set [4] addresses T2, Mmi1 YTH (Schizosaccharomyces pombe, UniProt O74958 327-488).
T2 sequence: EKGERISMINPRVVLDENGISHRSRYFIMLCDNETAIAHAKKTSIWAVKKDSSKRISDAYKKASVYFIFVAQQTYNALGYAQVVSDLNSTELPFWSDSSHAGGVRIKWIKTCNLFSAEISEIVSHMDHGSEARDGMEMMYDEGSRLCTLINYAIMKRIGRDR
Put plainly: SwitchSENSE. Particulars: 40 mM NaCl; RNA-DNA chimera: 15-mer DSRshort followed by 42 deoxyribonucleotides; FP: 10 mM TAPS pH 8.2, 2 mM PIPES, 50 or 150 mM NaCl, 0.5 mM MgAc, 0.1 mM TCEP, 0.01% Brij-35, room temperature, 0.1 nM RNA; EMSA: 20 mM HEPES pH 7.5, 100 mM ….

For data set [5], the system named is Mmi1 YTH-ΔNΔC (Schizosaccharomyces pombe). Put plainly: SwitchSENSE. Particulars: 40 mM NaCl; RNA-DNA chimera: 15-mer DSRshort followed by 42 deoxyribonucleotides; FP: 10 mM TAPS pH 8.2, 2 mM PIPES, 50 or 150 mM NaCl, 0.5 mM MgAc, 0.1 mM TCEP, 0.01% Brij-35, room temperature, 0.1 nM RNA; EMSA: 20 mM HEPES pH 7.5, 100 mM ….
Data set [6] deals with T1, Mmi1 USR-YTH. In words: fluorescence polarization; 150 mM NaCl; FP: 10 mM TAPS pH 8.2, 2 mM PIPES, 50 or 150 mM NaCl, 0.5 mM MgAc, 0.1 mM TCEP, 0.01% Brij-35, room temperature, 0.1 nM RNA; EMSA: 20 mM HEPES pH 7.5, 100 mM NaCl (plus 30 mM from protein buffer), 1 mM MgAc, 0.1 mM TCEP, 5% glycerol, 50 nM RNA, 15 min; SwitchSENSE: 40 mM NaCl. Particulars: protein: recombinant; tags: N-terminal His6, 3C-cleaved; label: 3'-6-carboxyfluorescein. Background: Fluorescence polarisation rises when a labelled molecule tumbles more slowly, as on binding a larger partner.

The target in data set [7] is T2, Mmi1 YTH. The description is as above. As to conditions: protein: recombinant; tags: N-terminal His6, 3C-cleaved; label: 3'-6-carboxyfluorescein.
The target of data set [8] is T1, Mmi1 USR-YTH. In words: fluorescence polarization; 50 mM NaCl; FP: 10 mM TAPS pH 8.2, 2 mM PIPES, 50 or 150 mM NaCl, 0.5 mM MgAc, 0.1 mM TCEP, 0.01% Brij-35, room temperature, 0.1 nM RNA; EMSA: 20 mM HEPES pH 7.5, 100 mM NaCl (plus 30 mM from protein buffer), 1 mM MgAc, 0.1 mM TCEP, 5% glycerol, 50 nM RNA, 15 min; SwitchSENSE: 40 mM NaCl. As to conditions: protein: recombinant; tags: N-terminal His6, 3C-cleaved; label: 3'-6-carboxyfluorescein.

Data set [9] has as its target T2, Mmi1 YTH. The data set is described as above. As to conditions: protein: recombinant; tags: N-terminal His6, 3C-cleaved; label: 3'-6-carboxyfluorescein.
Data set [10] addresses T3, Mmi1(301-488) (Schizosaccharomyces pombe, UniProt O74958 301-488).
T3 sequence: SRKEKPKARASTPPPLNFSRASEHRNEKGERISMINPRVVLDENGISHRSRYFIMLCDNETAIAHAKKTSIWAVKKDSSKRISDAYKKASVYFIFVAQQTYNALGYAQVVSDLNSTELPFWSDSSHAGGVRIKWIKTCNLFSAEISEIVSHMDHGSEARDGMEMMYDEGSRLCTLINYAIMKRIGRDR
Put plainly: X-ray crystallography; FP: 10 mM TAPS pH 8.2, 2 mM PIPES, 50 or 150 mM NaCl, 0.5 mM MgAc, 0.1 mM TCEP, 0.01% Brij-35, room temperature, 0.1 nM RNA; EMSA: 20 mM HEPES pH 7.5, 100 mM NaCl (plus 30 mM from protein buffer), 1 mM MgAc, 0.1 mM TCEP, 5% glycerol, 50 nM RNA, 15 min; SwitchSENSE: 40 mM NaCl. Particulars: protein: recombinant; tags: N-terminal His6, 3C-cleaved.

Data set [11] has as its target T1, Mmi1 USR-YTH. Put plainly: NMR; FP: 10 mM TAPS pH 8.2, 2 mM PIPES, 50 or 150 mM NaCl, 0.5 mM MgAc, 0.1 mM TCEP, 0.01% Brij-35, room temperature, 0.1 nM RNA; EMSA: 20 mM HEPES pH 7.5, 100 mM NaCl (plus 30 mM from protein buffer), 1 mM MgAc, 0.1 mM TCEP, 5% glycerol, 50 nM RNA, 15 min; SwitchSENSE: 40 mM NaCl. As to conditions: protein: recombinant; tags: N-terminal His6, 3C-cleaved.

Data set [12] concerns the target T1, Mmi1 USR-YTH. Put plainly: EMSA; FP: 10 mM TAPS pH 8.2, 2 mM PIPES, 50 or 150 mM NaCl, 0.5 mM MgAc, 0.1 mM TCEP, 0.01% Brij-35, room temperature, 0.1 nM RNA; EMSA: 20 mM HEPES pH 7.5, 100 mM NaCl (plus 30 mM from protein buffer), 1 mM MgAc, 0.1 mM TCEP, 5% glycerol, 50 nM RNA, 15 min; SwitchSENSE: 40 mM NaCl. As to conditions: protein: recombinant; tags: N-terminal His6, 3C-cleaved; label: 3'-fluorescein.

Consider DSRshort-DNA chimera for SwitchSENSE, for which the Kd in data set [1] worked out at 160 nM; in data set [2], 15000 nM; in data set [3], 0.09 nM; in data set [4], 16 nM; in [5], 51000 nM.

Take UCUUAAACCAGUCAC (ssRNA) [DSRshort (15-mer)]: the equilibrium dissociation constant (Kd) worked out at 6.1 ± 0.7 nM in [6], 154 ± 85 nM in [7], 0.14 ± 0.01 nM in data set [8] and 42 ± 18 nM in data set [9].

Consider CUUUAAACCUA (ssRNA) [11-mer DSR RNA], for which, in data set [10], the binding result is reported as “binds”.

UUAAACC (ssRNA) [7-mer DSR RNA]: the binding result in data set [11] and in data set [10] was “binds” throughout.

Take GUGUCUCUUUAAACCUAAAAAGCAC (ssRNA) [rec8DSR]: in data set [12], the binding result is “binds”.

A word on the Kd: it is the equilibrium constant for the complex coming apart.
